Source: patent US20210388087A1
Where a chain is given by its changes, count along the chain named. In names and notes the source's numbering stands. One block for each binder: values may come before it.

Target: Human CD137 ECD (human)
Test: SPR, vs parent H183/L072

Human CD137 ECD (human), sequence (chain, as listed by the source limits assumed): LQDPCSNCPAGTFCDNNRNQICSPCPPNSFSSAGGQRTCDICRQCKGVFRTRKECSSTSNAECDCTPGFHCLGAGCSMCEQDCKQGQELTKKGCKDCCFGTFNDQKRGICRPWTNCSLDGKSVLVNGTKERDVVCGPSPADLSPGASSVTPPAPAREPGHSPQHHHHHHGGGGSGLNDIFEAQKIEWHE

- fold change of affinity: 0 fold
B1: dBBDu183H T100bE / dBBDu072L (antibody, name in Kabat numbering, V domains shown)
VH: QVQLVESGGGLVQPGRSLRLSCAASGFTFSNAWMHWVRQAPGKGLEWVAQIKDKGNAYAAYYAPSVKGRFTISRDDSKNSIYLQMNSLKTEDTAVYYCHYVHYASASEVLPAFGVDAWGQGTTVTVSS
VL: DIVMTQSPLSLPVTPGEPASISCQASQELVHMNRNTYLHWYQQKPGQAPRLLIYKVSNRFPGVPDRFSGSGSGTDFTLKISRVEAEDVGVYYCAQGTSVPFTFGQGTKLEIK

- fold change of affinity: 0 fold
B2: dBBDu183H A102E / dBBDu072L (antibody, name in Kabat numbering, V domains shown)
VH: B1 VH with E108T, A117E
VL: B1 VL

- fold change of affinity: 0 fold
B3: dBBDu183H H93K / dBBDu072L (antibody, name in Kabat numbering, V domains shown)
VH: B1 VH with H99K, E108T
VL: B1 VL

- fold change of affinity: 0 fold
B4: dBBDu183H Y94R / dBBDu072L (antibody, name in Kabat numbering, V domains shown)
VH: B1 VH with Y100R, E108T
VL: B1 VL

- fold change of affinity: 0 fold
B5: dBBDu183H V100iH / dBBDu072L (antibody, name in Kabat numbering, V domains shown)
VH: B1 VH with E108T, V115H
VL: B1 VL

- fold change of affinity: 0 fold
B6: dBBDu183H V95K / dBBDu072L (antibody, name in Kabat numbering, V domains shown)
VH: B1 VH with V101K, E108T
VL: B1 VL

- fold change of affinity: 0 fold
B7: dBBDu183H D101K / dBBDu072L (antibody, name in Kabat numbering, V domains shown)
VH: B1 VH with E108T, D116K
VL: B1 VL

- fold change of affinity: 0 fold
B8: dBBDu183H Y94H / dBBDu072L (antibody, name in Kabat numbering, V domains shown)
VH: B1 VH with Y100H, E108T
VL: B1 VL

- fold change of affinity: 0 fold
B9: dBBDu183H A102H / dBBDu072L (antibody, name in Kabat numbering, V domains shown)
VH: B1 VH with E108T, A117H
VL: B1 VL

- fold change of affinity: 0 fold
B10: dBBDu183H Y97H / dBBDu072L (antibody, name in Kabat numbering, V domains shown)
VH: B1 VH with Y103H, E108T
VL: B1 VL

- fold change of affinity: 0 fold
B11: dBBDu183H V100iK / dBBDu072L (antibody, name in Kabat numbering, V domains shown)
VH: B1 VH with E108T, V115K
VL: B1 VL

- fold change of affinity: 0 fold
B12: dBBDu183H A98H / dBBDu072L (antibody, name in Kabat numbering, V domains shown)
VH: B1 VH with A104H, E108T
VL: B1 VL

- fold change of affinity: 0 fold
B13: dBBDu183H L100dH / dBBDu072L (antibody, name in Kabat numbering, V domains shown)
VH: B1 VH with E108T, L110H
VL: B1 VL

- fold change of affinity: 0 fold
B14: dBBDu183H Y97K / dBBDu072L (antibody, name in Kabat numbering, V domains shown)
VH: B1 VH with Y103K, E108T
VL: B1 VL

- fold change of affinity: 0 fold
B15: dBBDu183H V100iE / dBBDu072L (antibody, name in Kabat numbering, V domains shown)
VH: B1 VH with E108T, V115E
VL: B1 VL

- fold change of affinity: 0 fold
B16: dBBDu183H A100fK / dBBDu072L (antibody, name in Kabat numbering, V domains shown)
VH: B1 VH with E108T, A112K
VL: B1 VL

- fold change of affinity: 0 fold
B17: dBBDu183H G100hK / dBBDu072L (antibody, name in Kabat numbering, V domains shown)
VH: B1 VH with E108T, G114K
VL: B1 VL

- fold change of affinity: 0 fold
B18: dBBDu183H V95H / dBBDu072L (antibody, name in Kabat numbering, V domains shown)
VH: B1 VH with V101H, E108T
VL: B1 VL

- fold change of affinity: 0 fold
B19: dBBDu183H F100gK / dBBDu072L (antibody, name in Kabat numbering, V domains shown)
VH: B1 VH with E108T, F113K
VL: B1 VL

- fold change of affinity: 0 fold
B20: dBBDu183H G100hH / dBBDu072L (antibody, name in Kabat numbering, V domains shown)
VH: B1 VH with E108T, G114H
VL: B1 VL

- fold change of affinity: 0 fold
B21: dBBDu183H T100bH / dBBDu072L (antibody, name in Kabat numbering, V domains shown)
VH: B1 VH with E108H
VL: B1 VL

- fold change of affinity: 0 fold
B22: dBBDu183H A98K / dBBDu072L (antibody, name in Kabat numbering, V domains shown)
VH: B1 VH with A104K, E108T
VL: B1 VL

- fold change of affinity: 0 fold
B23: dBBDu183H A100fE / dBBDu072L (antibody, name in Kabat numbering, V domains shown)
VH: B1 VH with E108T, A112E
VL: B1 VL

- fold change of affinity: 0 fold
B24: dBBDu183H S100aK / dBBDu072L (antibody, name in Kabat numbering, V domains shown)
VH: B1 VH with S107K, E108T
VL: B1 VL

- fold change of affinity: 0 fold
B25: dBBDu183H H93R / dBBDu072L (antibody, name in Kabat numbering, V domains shown)
VH: B1 VH with H99R, E108T
VL: B1 VL

- fold change of affinity: 0 fold
B26: dBBDu183H A100H / dBBDu072L (antibody, name in Kabat numbering, V domains shown)
VH: B1 VH with A106H, E108T
VL: B1 VL

- fold change of affinity: 0 fold
B27: dBBDu183H G100hE / dBBDu072L (antibody, name in Kabat numbering, V domains shown)
VH: B1 VH with E108T, G114E
VL: B1 VL

- fold change of affinity: 0 fold
B28: dBBDu183H T100bK / dBBDu072L (antibody, name in Kabat numbering, V domains shown)
VH: B1 VH with E108K
VL: B1 VL

- fold change of affinity: 0 fold
B29: dBBDu183H Y94K / dBBDu072L (antibody, name in Kabat numbering, V domains shown)
VH: B1 VH with Y100K, E108T
VL: B1 VL

- fold change of affinity: 0 fold
B30: dBBDu183H S100aH / dBBDu072L (antibody, name in Kabat numbering, V domains shown)
VH: B1 VH with S107H, E108T
VL: B1 VL

- fold change of affinity: 0 fold
B31: dBBDu183H H96K / dBBDu072L (antibody, name in Kabat numbering, V domains shown)
VH: B1 VH with H102K, E108T
VL: B1 VL

- fold change of affinity: 0 fold
B32: dBBDu183H A102K / dBBDu072L (antibody, name in Kabat numbering, V domains shown)
VH: B1 VH with E108T, A117K
VL: B1 VL

- fold change of affinity: 0 fold
B33: dBBDu183H D101H / dBBDu072L (antibody, name in Kabat numbering, V domains shown)
VH: B1 VH with E108T, D116H
VL: B1 VL
